Reference: article PMC8143406

Molecular target: T1, GST-SXL (Sex-lethal) (UniProt P19339)
T1 sequence (P19339 whole entry, looked up): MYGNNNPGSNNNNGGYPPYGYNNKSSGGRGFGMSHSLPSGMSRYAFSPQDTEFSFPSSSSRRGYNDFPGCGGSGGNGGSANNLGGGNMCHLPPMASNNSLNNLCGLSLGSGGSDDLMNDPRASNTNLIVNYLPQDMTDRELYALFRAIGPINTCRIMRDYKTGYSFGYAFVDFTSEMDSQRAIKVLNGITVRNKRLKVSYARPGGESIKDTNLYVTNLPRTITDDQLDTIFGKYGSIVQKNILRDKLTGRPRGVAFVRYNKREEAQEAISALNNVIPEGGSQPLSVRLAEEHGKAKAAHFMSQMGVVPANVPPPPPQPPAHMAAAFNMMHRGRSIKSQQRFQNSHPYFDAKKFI
Experiment: EMSA
Conditions: EMSA as in cited refs 28 and 40, buffer, salt and pH not stated, GST-SXL at 166, 55 and 18 ng/ul, SELEX binding at 30 C for 30 min in 100 ul

[1] = within 2-3-fold of tra Py-tract

| Sequence | Kd [nM] | Kd [1] [nM] |
| --- | --- | --- |
| UUUUUGUUGUUUUUUUU [tra non-sex-specific polypyrimidine tract/3' splice site RNA] | 1 |  |
| UUUUUUUCUUUUUUUUCU [TnI 5' UTR SXL-binding site RNA (cDNA SELEX clone 10-15h_5)] |  | 1 |
| UUUUUUUUUCUUUUUUUUGU [Gs2 3' UTR SXL-binding site RNA (cDNA SELEX clone 10-15h_14)] |  | 1 |
